This note sets out measurements from patent publication US20120316071A1 (published 2012).

Assay [1] deals with T1, rHuman IGF-1 sR, CF (R&D Systems Cat#391-GR) (human, UniProt P08069 31-932).
T1 construct: Bought soluble receptor; The column head prints only 'IGF-1'; also called insulin-like growth factor-1 soluble receptor
The assay is described as follows: ECL Multispot (MSD) assay, antigen spotted on plate, 10 nM Fab; blank spot of this row 182.

Assay [2] addresses T2, rHuman P-Cadherin/Fc Chimera, CF (R&D Systems Cat#861-PC) (human, UniProt P22223 108-654).
T2 construct: Bought reagent; Fc part of the bought chimera not given
The description is as above.

The target of assay [3] is T3, rHuman Erythropoietin R/Fc Chimera, CF (R&D Systems Cat#963-ER) (human, UniProt P19235 25-250).
T3 construct: Bought reagent; also called EPO R; EPO R/Fc; Fc part of the bought chimera not given
T3 sequence (looked up): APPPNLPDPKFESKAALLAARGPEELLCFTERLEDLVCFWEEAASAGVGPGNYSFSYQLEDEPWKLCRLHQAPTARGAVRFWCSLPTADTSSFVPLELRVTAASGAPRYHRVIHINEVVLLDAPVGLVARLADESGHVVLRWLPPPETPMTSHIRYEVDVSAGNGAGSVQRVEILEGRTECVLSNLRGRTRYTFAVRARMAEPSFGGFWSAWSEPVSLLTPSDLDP
The assay is described as above.

For assay [4], the target named is T4, rHuman ErbB2/Fc Chimera, CF (R&D Systems Cat#1129-ER) (human, UniProt P04626 23-652).
T4 construct: Bought reagent; also called human epidermal growth factor 2 receptor; Fc part of the bought chimera not given
The assay is described as above.

Assay [5] concerns the target T5, rHuman EGF R/Fc Chimera, CF (R&D Systems Cat#344-ER) (human, UniProt P00533 25-645).
T5 construct: Bought reagent; also called epidermal growth factor receptor; Fc part of the bought chimera not given
The description is as above.

In assay [6] the target is T6, rHuman HGF R/c-MET/Fc Chimera, CF (R&D Systems Cat#358-MT/CF) (human, UniProt P08581 25-932).
T6 construct: Bought reagent; also called HGF R/Fc; hepatocyte growth factor receptor; Fc part of the bought chimera not given
The assay is described as above.

Assay [7] concerns the target T7, rHuman Notch-1/Fc Chimera, CF (R&D Systems Cat#3647-TK) (human, UniProt P46531 19-526).
T7 construct: Bought reagent; Fc part of the bought chimera not given
The description is as above.

Assay [8] deals with T8, rHuman CD44/Fc Chimera, CF (R&D Systems Cat#3660-CD) (human, UniProt P16070 21-220).
T8 construct: Bought reagent; Fc part of the bought chimera not given
The assay is described as above.

Assay [9] deals with T9, rHuman Erythropoietin R/Fc Chimera, CF (R&D Systems Cat#963-ER) (human, UniProt P19235 25-250).
T9 construct: Bought Fc chimera; also called EPO R/Fc; EPO R; Fc part of the bought chimera not given
T9 sequence (looked up): T3 sequence (looked up)
The assay is described as follows: Multispot ECL (MSD) titration; antigen spotted on plate; Fab 1570 nM; blank spot 866.

In assay [10] the target is T10, Recombinant Human DLL4 (R&D Systems Cat#1506-D4/CF) (human, UniProt Q9NR61 27-524).
T10 construct: Bought recombinant protein; also called delta-like protein 4; rHuman DLL4
Described as above.

Assay [11] deals with T11, rHuman HGF R/c-MET/Fc Chimera, CF (R&D Systems Cat#358-MT/CF) (human, UniProt P08581 25-932).
T11 construct: Bought Fc chimera; also called HGF R/Fc; hepatocyte growth factor receptor; Fc part of the bought chimera not given
Described as above.

Assay [12] has as its target T12, rHuman Notch-1/Fc Chimera, CF (R&D Systems Cat#3647-TK) (human, UniProt P46531 19-526).
T12 construct: Bought Fc chimera; Fc part of the bought chimera not given
The assay is described as above.

Assay [13] addresses T13, rHuman CD44/Fc Chimera, CF (R&D Systems Cat#3660-CD) (human, UniProt P16070 21-220).
T13 construct: Bought Fc chimera; Fc part of the bought chimera not given
Described as above.

Assay [14] addresses T14, rHuman IGF-1 sR (IGF-1 sR), CF (R&D Systems Cat#391-GR) (human, UniProt P08069 31-932).
T14 construct: Bought soluble receptor; also called insulin-like growth factor-1 soluble receptor
Described as above.

Assay [15] concerns the target T15, rHuman P-Cadherin/Fc Chimera, CF (R&D Systems Cat#861-PC) (human, UniProt P22223 108-654).
T15 construct: Bought Fc chimera; Fc part of the bought chimera not given
The assay is described as above.

The target in assay [16] is T16, Recombinant Human DLL4 (R&D Systems Cat#1506-D4/CF) (human, UniProt Q9NR61 27-524).
T16 construct: Bought recombinant protein; also called rHuman DLL4; delta-like protein 4
Kind of assay: MSD Multispot ECL, antigen spotted on plate, Fab at 30 nM; blank spot 213.

Assay [17] has as its target T17, rHuman CD44/Fc Chimera, CF (R&D Systems Cat#3660-CD) (human, UniProt P16070 21-220).
T17 construct: Bought Fc chimera; Fc part of the bought chimera not given
Described as above.

Assay [18] concerns the target T18, rHuman P-Cadherin/Fc Chimera, CF (R&D Systems Cat#861-PC) (human, UniProt P22223 108-654).
T18 construct: Bought Fc chimera; Fc part of the bought chimera not given
The assay is described as above.

B1: Fab VH1-46_IGHD6-6*01_IGHJ1*01 S102A/S103P/S104F (APF) & L6_IGKJ1*01 (Fab, V domains shown)
VH: QVQLVQSGAEVKKPGASVKVSCKASGYTFTSYYMHWVRQAPGQGLEWMGIINPSGGSTSYAQKFQGRVTMTRDTSTSTVYMELSSLRSEDTAVYYCAREEYAPFSAEYFQHWGQGTLVTVSS
VL: not shown
notes: Tested as a Fab made in E. coli; also called H:APF & L:wt; APF triple mutant
As for B1, the ECL signal in [1] came out at 344; in [2], 449; in assay [3], 222; in [4] it was 221; in [5], 296; in assay [6], 319. In addition, the ECL signal in [7] stood at 251; in assay [8] it was 221.

B2: Fab VH1-46_IGHD3-10*01_IGHJ4*01 & O1_IGKJ1*01 (Fab, V domains shown)
VH: QVQLVQSGAEVKKPGASVKVSCKASGYTFTSYYMHWVRQAPGQGLEWMGIINPSGGSTSYAQKFQGRVTMTRDTSTSTVYMELSSLRSEDTAVYYCAREYYYGSGSYYNDYFDYWGQGTLVTVSS
VL: DIVMTQTPLSLPVTPGEPASISCRSSQSLLDSDDGNTYLDWYLQKPGQSPQLLIYTLSYRASGVPDRFSGSGSGTDFTLKISRVEAEDVGVYYCMQRIEFPSWTFGQGTKVEIKR
notes: Germline library Fab expressed in E. coli; VH was cloned into Plasmid A (CH1 constant region, His6 and Flag tags); The kappa VL was cloned into Plasmid C (kappa CL)
Regarding B2, the ECL signal in assay [9] worked out at 6120; in [10] it was 2700; in assay [11], 1640; in assay [12], 1640; in assay [13], 1380; in [14] it was 1430. In addition, the ECL signal in assay [15] turned out to be 1790.

B3: Fab VH6-1_IGHD3-3*01_IGHJ4*01 & V4-3_IGLJ4*01 (Fab, V domains shown)
VH: QVQLQQSGPGLVKPSQTLSLTCAISGDSVSSNSAAWNWIRQSPSRGLEWLGRTYYRSKWYNDYAVSVKSRITINPDTSKNQFSLQLNSVTPEDTAVYYCAREYYDFWSGYYTDYFDYWGQGTLVTVSS
VL: QPVLTQPTSLSASPGASARLTCTLRSGINLGSYRIFWYQQKPESPPRYLLSYYSDSSKHQGSGVPSRFSGSKDASSNAGILVISGLQSEDEADYYCMIWHSSASFVFGGGTQLIIL
notes: Tested as a purified germline Fab made in E. coli; The VH was cloned into plasmid A (CH1 constant region, His6 and Flag tags) and the lambda VL into plasmid E (lambda CL)
Regarding B3, the ECL signal in assay [16] worked out at 736; in [17], 484; in assay [18], 440.
